From the supplement of paper PMC11246515
± gives the standard deviation of the averaged measurements.

Test: total protein half-life in vivo (active degradation + dilution); higher = more stable protein
[1] = E. coli NCM3722 delta-clpP delta-lon delta-hslV, growth: N-lim chemostat, doubling time 6 h
[2] = E. coli NCM3722 delta-lon, growth: N-lim chemostat, doubling time 6 h
[3] = wild type E. coli NCM3722, growth: C-lim chemostat, doubling time 6 h
[4] = wild type E. coli NCM3722, growth: C-lim chemostat, doubling time 12 h
[5] = wild type E. coli NCM3722, growth: P-lim chemostat, doubling time 12 h
[6] = wild type E. coli NCM3722, growth: C-lim chemostat, doubling time 3 h
[7] = wild type E. coli NCM3722, growth: N-lim chemostat, doubling time 12 h
[8] = E. coli NCM3722 delta-clpP, growth: N-lim chemostat, doubling time 6 h
[9] = E. coli NCM3722 delta-hslV, growth: N-lim chemostat, doubling time 6 h
[10] = E. coli NCM3722 delta-smpB, growth: N-lim chemostat, doubling time 6 h
[11] = wild type E. coli NCM3722, growth: N-lim chemostat, doubling time 6 h
[12] = wild type E. coli NCM3722, growth: P-lim chemostat, doubling time 6 h

MKRLQAFKFQLRPGGQQECEMRRFAGACRFVFNRALARQNENHEAGNKYIPYGKMASWLVEWKNATETQWLKDSPSQPLQQSLKDLERAYKNFFRKRAAFPRFKKRGQNDAFRYPQGVKLDQENSRIFLPKLGWMRYRNSRQVTGVVKNVTVSQSCGKWYISIQTESEVSTPVHPSASMVGLDAGVAKLATLSDGTVFEPVNSFQKNQKKLARLQRQLSRKVKFSNNWQKQKRKIQRLHSCIANIRRDYLHKVTTAVSKNHAMIVIEDLKVSNMSKSAAGTVSQPGRNVRAKSGLNRSILDQGWYEMRRQLAYKQLWRGGQVLAVPPAYTSQRCAYCGHTAKENRLSQSKFRCQVCGYTANADVNGARNILAAGHAVLACGEMVQSGRPLKQEPTEMIQATA
total protein half-life in vivo [1]: 5.63 h
total protein half-life in vivo [2]: 3.54 h
total protein half-life in vivo [3]: 6.1 ± 0.35 h
total protein half-life in vivo [4]: 10.6 h
total protein half-life in vivo [5]: > 16 h

MKRLRNKMTTEELAECLGVAKQTVNRWIREKGWKTEKFPGVKGGRARLILVDTQVCEFIQNTPAFHNTPMLMEAEERIAEYAPGARAPAYRQIINAIDNMTDIEQEKVAQFLSREGIRNFLARLDIDESA
total protein half-life in vivo [1]: 6.16 ± 0.29 h
total protein half-life in vivo [6]: 2.58 ± 0.081 h
total protein half-life in vivo [3]: 4.56 h
total protein half-life in vivo [4]: 7.65 ± 1 h
total protein half-life in vivo [7]: 4.62 h
total protein half-life in vivo [5]: 4.26 h

MKRMIALDGAQGEGGGQILRSALSLSMITGQPFTITSIRAGRAKPGLLRQHLTAVKAATEICGATVEGAELGSQRLLFRPGTVRGGDYRFAIGSAGSCTLVLQTVLPALWFADGPSRVEVSGGTDNPSAPPADFIRRVLEPLLAKIGIHQQTTLLRHGFYPAGGGVVATEVSPVASFNTLQLGERGNIVQMRGEVLLAGVPRHVAEREIATLAGSFSLHEQNIHNLPRDQGPGNTVSLEVESENITERFFVVGEKRVSAEVVAAQLVKEVKRYLASTAAVGEYLADQLVLPMALAGAGEFTVAHPSCHLLTNIAVVERFLPVRFSLIETDGVTRVSIE
total protein half-life in vivo [1]: 5.12 ± 0.25 h
total protein half-life in vivo [8]: 4.65 h
total protein half-life in vivo [9]: 5.05 h
total protein half-life in vivo [2]: 4.457 ± 0.014 h
total protein half-life in vivo [10]: 4.17 ± 0.09 h
total protein half-life in vivo [6]: 2.59 h
total protein half-life in vivo [3]: 5.6 ± 0.12 h
total protein half-life in vivo [4]: 11.3 ± 1.7 h
total protein half-life in vivo [11]: 4.52 ± 0.4 h
total protein half-life in vivo [12]: 5.28 ± 0.24 h
total protein half-life in vivo [5]: 10.9 h

MKRNAKTIIAGMIALAISHTAMADDIKVAVVGAMSGPIAQWGDMEFNGARQAIKDINAKGGIKGDKLVGVEYDDACDPKQAVAVANKIVNDGIKYVIGHLCSSSTQPASDIYEDEGILMISPGATNPELTQRGYQHIMRTAGLDSSQGPTAAKYILETVKPQRIAIIHDKQQYGEGLARSVQDGLKAANANVVFFDGITAGEKDFSALIARLKKENIDFVYYGGYYPEMGQMLRQARSVGLKTQFMGPEGVGNASLSNIAGDAAEGMLVTMPKRYDQDPANQGIVDALKADKKDPSGPYVWITYAAVQSLATALERTGSDEPLALVKDLKANGANTVIGPLNWDEKGDLKGFDFGVFQWHADGSSTAAK
total protein half-life in vivo [1]: 5.85 ± 0.11 h
total protein half-life in vivo [8]: 6.16 ± 0.79 h
total protein half-life in vivo [9]: 6.48 ± 0.55 h
total protein half-life in vivo [2]: 5.84 ± 0.097 h
total protein half-life in vivo [10]: 6.01 ± 0.47 h
total protein half-life in vivo [6]: 3.077 ± 0.0084 h
total protein half-life in vivo [3]: 6.134 ± 0.039 h
total protein half-life in vivo [4]: 11.9 ± 0.26 h
total protein half-life in vivo [11]: 5.87 ± 0.27 h
total protein half-life in vivo [7]: 12.2 ± 0.64 h
total protein half-life in vivo [12]: 5.65 ± 0.13 h
total protein half-life in vivo [5]: 14.3 ± 1.1 h

MKRSISFRPTLLALVLATNFPVAHAAVPKDMLVIGKAADPQTLDPAVTIDNNDWTVTYPSYQRLVQYKTDGDKGSTDVEGDLASSWKASDDQKEWTFTLKDNAKFADGTPVTAEAVKLSFERLLKIGQGPAEAFPKDLKIDAPDEHTVKFTLSQPFAPFLYTLANDGASIINPAVLKEHAADDARGFLAQNTAGSGPFMLKSWQKGQQLVLVPNPHYPGNKPNFKRVSVKIIGESASRRLQLSRGDIDIADALPVDQLNALKQENKVNVAEYPSLRVTYLYLNNSKAPLNQADLRRAISWSTDYQGMVNGILSGNGKQMRGPIPEGMWGYDATAMQYNHDETKAKAEWDKVTSKPTSLTFLYSDNDPNWEPIALATQSSLNKLGIIVKLEKLANATMRDRVGKGDYDIAIGNWSPDFADPYMFMNYWFESDKKGLPGNRSFYENSEVDKLLRNALATTDQTQRTRDYQQAQKIVIDDAAYVYLFQKNYQLAMNKEVKGFVFNPMLEQVFNINTMSK
total protein half-life in vivo [1]: 4.61 ± 0.059 h
total protein half-life in vivo [8]: 5.72 ± 1.4 h
total protein half-life in vivo [9]: 5 ± 0.15 h
total protein half-life in vivo [2]: 5.74 ± 0.097 h
total protein half-life in vivo [10]: 5.02 ± 0.13 h
total protein half-life in vivo [6]: 2.73 ± 0.04 h
total protein half-life in vivo [3]: 4.77 ± 0.049 h
total protein half-life in vivo [4]: 7.85 ± 0.62 h
total protein half-life in vivo [11]: 5.26 ± 0.5 h
total protein half-life in vivo [7]: 7.37 ± 0.29 h
total protein half-life in vivo [5]: 12.42 ± 0.093 h

MKRTKSIRHASFRKNWSARHLTPVALAVATVFMLAGCEKSDETVSLYQNADDCSAANPGKSAECTTAYNNALKEAERTAPKYATREDCVAEFGEGQCQQAPAQAGMAPENQAQAQQSSGSFWMPLMAGYMMGRLMGGGAGFAQQPLFSSKNPASPAYGKYTDATGKNYGAAQPGRTMTVPKTAMAPKPATTTTVTRGGFGESVAKQSTMQRSATGTSSRSMGG [P0ADT2]
total protein half-life in vivo [1]: 3.82 ± 0.98 h
total protein half-life in vivo [8]: 4.17 ± 0.3 h
total protein half-life in vivo [9]: 3.89 ± 0.12 h
total protein half-life in vivo [2]: 3.69 ± 0.096 h
total protein half-life in vivo [10]: 3.22 ± 0.56 h
total protein half-life in vivo [6]: 1.83 ± 0.4 h
total protein half-life in vivo [3]: 3.71 ± 0.29 h
total protein half-life in vivo [4]: 5.86 ± 0.6 h
total protein half-life in vivo [11]: 4.08 ± 0.88 h
total protein half-life in vivo [7]: 7.11 ± 0.26 h
total protein half-life in vivo [12]: 3.45 ± 0.38 h
total protein half-life in vivo [5]: 7.48 ± 0.2 h

MKRVLIPGVILCGADVAQAVDDKNMYMHFFEEMTVYAPVPVPVNGNTHYTSESIERLPTGNGNISDLLRTNPAVRMDSTQSTSLNQGDIRPEKISIHGASPYQNAYLIDGISATNNLNPANESDASSATNISGMSQGYYLDVSLLDNVTLYDSFVPVEFGRFNGGVIDAKIKRFNADDSKVKLGYRTTRSDWLTSHIDENNKSAFNQGSSGSTYYSPDFKKNFYTLSFNQELADNFGVTAGLSRRQSDITRADYVSNDGIVAGRAQYKNVIDTALSKFTWFASDRFTHDLTLKYTGSSRDYNTSTFPQSDREMGNKSYGLAWDMDTQLAWAKLRTTVGWDHISDYTRHDHDIWYTELSCTYGDITGRCTRGGLGHISQAVDNYTFKTRLDWQKFAVGNVSHQPYFGAEYIYSDAWTERHNQSESYVINAAGKKTNHTIYHKGKGRLGIDNYTLYMADRISWRNVSLMPGVRYDYDNYLSNHNISPRFMTEWDIFANQTSMITAGYNRYYGGNILDMGLRDIRNSWTESVSGNKTLTRYQDLKTPYNDELAMGLQQKIGKNVIARANYVYREAHDQISKSSRTDSATKTTITEYNNDGKTKTHSFSLSFELAEPLHIRQVDINPQIVFSYIKSKGNLSLNNGYEESNTGDNQVVYNGNLVSYDSVPVADFNNPLKISLNMDFTHQPSGLVWANTLAWQEARKARIILGKTNAQYISEYSDYKQYVDEKLDSSLTWDTRLSWTPQFLQQQNLTISADILNVLDSKTAVDTTNTGVATYASGRTFWLDVSMKF
total protein half-life in vivo [1]: 5.87 ± 0.22 h
total protein half-life in vivo [8]: 5.83 ± 0.27 h
total protein half-life in vivo [9]: > 8 h
total protein half-life in vivo [10]: 5.751 ± 0.012 h
total protein half-life in vivo [6]: 3.16 ± 0.12 h
total protein half-life in vivo [3]: 6.17 ± 0.26 h
total protein half-life in vivo [4]: 9.31 ± 0.88 h
total protein half-life in vivo [11]: 6.68 h
total protein half-life in vivo [7]: 12.2 ± 1.3 h
total protein half-life in vivo [12]: 6.72 h
total protein half-life in vivo [5]: 14.44 ± 0.031 h
